# Source: publication PMC4771820
# Biological target: Paracoccus denitrificans FnrP (Paracoccus denitrificans)
# Assay: SEC; analytical gel filtration under anaerobic conditions, calibrated Sephacryl S-100HR 16/50, assay buffer (25 mM HEPES, 2.5 mM CaCl2, 100 mM NaCl, 100 mM NaNO3, pH 7.5), 1 ml/min; reconstituted [4Fe–4S] FnrP (~90 % loaded) loaded at ~28 μM [4Fe–4S], in the absence of O2
substance,measurement,value
Paracoccus denitrificans FnrP (natural protein),stoichiometry N,2
